Reference: the DeepSol protein solubility set

Test: soluble on expression in E. coli; label from the status in PepcDB or PDB records

| Sequence | soluble on expression in E. coli |
| --- | --- |
| MKITAVETLYCNAGWRNLSFLKISTDEGLVGWAEFPENHINNVLSPLVRHMGQQILGEDPRRIHPVIDRLRRAAWGVPFGAVSRAIGAIENALVDIKAKAIGVPAYELIGGRMRDDIRMYWSHCGSYHVTNWKDLGVPRITSLDDVKSLGRQVRESGYHALKTNLMMFDRPEPYMYRPGFAGGSGDPDRNPLRSAISAAVDQMTAFREGAGPDIGLKLDVNFNFRPEGYIRLAHALEPVDLDWLEIDNFDAKAVAQVRRASRIPIASCETLSGRRQLRPYLEEQAVDVVIIDVPWNGIYEAMRMAALADSFEVNVATHNFCGPIATLISAHFCAAVPNFRVMEMDVVQVPWTNDLITNPPTIERGYMRLPDGPGWGADVNEEALRAHPPVAAKH | not soluble |
| MSQKTDAPLESYEVNGATIAVLPEEIDGKICSKIIEKDCVFYVNMKPLQIVDRSCRFFGSSYAGRKAGTYEVTKISHKPPIMVDPSNQIFLFPTLSSTRPQCGWISHVHVKEFKATEFDDTEVTFSNGKTMELPISYNSFENQVYRTAWLRTKFQDRIDHRVPKRQEFMLYPKEERTKMIYDFILRELGERYLEHHHHHH | not soluble |
| MSYTTDEVHFLLDLDAEITAVAGAITRDHAMTKATAVKDAATFHKHFGANGRAAMELCASRTSAQGKLPHDWLMCHDSSQQATPLTVAQQRAHRIHRVCGSEAIVHDVTCSIGTEGAAITDLGMAYHGSDLDMSRLLMARHNVPTGLFFQADALKRASTSSDVIIADPARRAEGRRITKPDQLIPPLPQLVDHWRIATTTAAPMAIKCAPGLDFQEWDGLVSVVSVAGGVKEACLYTPELSEGLTREAIMIGPDQSVDVLNDRHGGEVPAGDPGTFIIDPDGAVVRAGLVQHYAAREQLWMLDEHIAYLTGDRIPQGRSGFRFIEMVGLKQLKSALVAHDAGSLEILVRGVDVDPDQLRKKLKLKGNTPMAVICTRIGRKGVALICHAREHSQT | not soluble |
| MRIHRRIKIKQKSVRIFIFDTKHRINDTKRQEDDEPHGLSALHFASRRPTCCACWMRRKKESTTTKVCVQDDCTTCSCTSASRCSRCSPCCSGCCSCTS | not soluble |
| MSLLQSALDFLAGPGSLGGASGRDQSDFVGQTVELGELRLRVRRVLAEGGFAFVYEAQDVGSGREYALKRLLSNEEEKNRAIIQEVCFMKKLSGHPNIVQFCSAASIGKEESDTGQAEFLLLTELCKGQLVEFLKKMESRGPLSCDTVLKIFYQTCRAVQHMHRQKPPIIHRDLKVENLLLSNQGTIKLCDFGSATTISHYPDYSWSAQRRALVEEEITRNTTPMYRTPEIIDLYSNFPIGEKQDIWALGCILYLLCFRQHPFEDGAKLRIVNGKYSIPPHDTQYTVFHSLIRAMLQVNPEERLSIAEVVHQLQEIAAARNVNPKSPITELLEQNGGYGSATLSRGPPPPVGPAGSGYSGGLALAEYDQPYGGFLDILRGGTERLFTNLKDTSSKVIQSVANYAKGDLDISYITSRIAVMSFPAEGVESALKNNIEDVRLFLDSKHPGHYAVYNLSPRTYRPSRFHNRVSECGWAARRAPHLHTLYNICRNMHAWLRQDHKNVCVVHCMDGRAASAVAVCSFLCFCRLFSTAEAAVYMFSMKRCPPGIWPSHKRYIEYMCDMVAEEPITPHSKPILVRAVVMTPVPLFSKQRSGCRPFCEVYVGDERVASTSQEYDKMRDFKIEDGKAVIPLGVTVQGDVLIVIYHARSTLGGRLQAKMASMKMFQIQFHTGFVPRNATTVKFAKYDLDACDIQEKYPDLFQVNLEVEVEPRDRPSREAPPWENSSMRGLNPKILFSSREEQQDILSKFGKPELPRQPGSTAQYDAGAGSPEAEPTDSDSPPSSSADASRFLHTLDWQEEKEAETGAENASSKESESALMEDRDESEVSDEGGSPISSEGQEPRADPEPPGLAAGLVQQDLVFEVETPAVLPEPVPQEDGVDLLGLHSEVGAGPAVPPQACKAPSSNTDLLSCLLGPPEAASQGPPEDLLSEDPLLLASPAPPLSVQSTPRGGPPAAADPFGPLLPSSGNNSQPCSNPDLFGEFLNSDSVTVPPSFPSAHSAPPPSCSADFLHLGDLPGEPSKMTASSSNPDLLGGWAAWTETAASAVAPTPATEGPLFSPGGQPAPCGSQASWTKSQNPDPFADLGDLSSGLQGSPAGFPPGGFIPKTATTAKGSSSWQTSRPPAQGASWPPQAKPPPKACTQPRPNYASNFSVIGAREERGVRAPSFAQKPKVSENDFEDLLSNQGFSSRSDKKGPKTIAEMRKQDLAKDTDPLKLKLLDWIEGKERNIRALLSTLHTVLWDGESRWTPVGMADLVAPEQVKKHYRRAVLAVHPDKAAGQPYEQHAKMIFMELNDAWSEFENQGSRPLF | soluble |
| AQAVKEAASSDKPLIVAVTACTTGIAHIYMAEESLIKTGEKMSVNVRVETNGASGVGTPMTAEEINKAVGVIIAADKAVETACFNGKN | not soluble |
| MNLYSLLLSLITGCFLLAQGGTSFSSPVETEKSAVTAQSILEKADEIRFPQDSFQVNVAIRTAAPDHAEDLYRYQVLSKGNENSIVMITEPASERGQAILMKGRDLWVFMPSVSQPIRLSLSQRLTGQVANGDIARANFTGDYHPQLLRNESIDDEDYYVLELTGIDRSVTYQKVLLWVNQSNFRPYKAEFYSVSGRLLKTSRYENFDNILGEMRPTRIIMEDALKSGEVSVLDYSDMKLRDLPDKIFTKDYLKRLE | not soluble |
| MIKIKENRMSQSNVIIVHGAYGHPFENWFNWMKTELESLGIECFVPQLPTPDGQELKNWLHVFNSTVSPMITHDTILIGHSLGSAFLLRWLEQANQSVFSTILAGSFIGTVGIQKFDKINESFFENGFDWHSIINKSKQFFCYHGSNDPYISRSNFNFIANNLQARKIIISQGGHLNEAAGFSSFPQLLIQLKSLLGINYGKFI | not soluble |
| MATFMTEDFLLKNDIARTLYHKYAAPMPIYDFHCHLSPQEIADDRRFDNLGQIWLEGDHYKWRALRSAGVDESLITGKETSDYEKYMAWANTVPKTLGNPLYHWTHLELRRPFGITGTLFGPDTAESIWTQCNEKLATPAFSARGIMQQMNVRMVGTTDDPIDSLEYHRQIAADDSIDIEVAPSWRPDKVFKIELDGFVDYLRKLEAAADVSITRFDDLRQALTRRLDHFAACGCRASDHGIETLRFAPVPDDAQLDAILGKRLAGETLSELEIAQFTTAVLVWLGRQYAARGWVMQLHIGAIRNNNTRMFRLLGPDTGFDSIGDNNISWALSRLLDSMDVTNELPKTILYCLNPRDNEVLATMIGNFQGPGIAGKVQFGSGWWFNDQKDGMLRQLEQLSQMGLLSQFVGMLTDSRSFLSYTRHEYFRRILCNLLGQWAQDGEIPDDEAMLSRMVQDICFNNAQRYFTIK | not soluble |
| KGESYKGKVAVASVVLNRTEKKGFPDTIRGVIYQKNAFEPVANGSINQKPDKESIEAAEEALSSKNRETDAIFFYNPKTASDNWIRSRKIVEKIGRHVFAV | not soluble |
| MFRRARPLRKTTRINGLERNGLKRSGRGWNAPGADVLARHCPLLPGRADAIGRGRLIVATWPKSAAKQRQNVPPARSRTRWRSMSSCHRSGPQKRGRDSGAVTAVTGAPNGQATAFVSLNDEVDAVAAAANLWVRAKSPLHGHAEHLRCEARLATFGARRQRQRVRGRARPECPRRRRSAMADMPPSAP | not soluble |
| RKRRRGYDVDEQGKIVRGKGTVSSNYDNYVFDIWKQYYPQPVEIKHDHVLDHYDIHEELGTGAFGVVHRVTERATGNNFAAKFVMTPHESDKETVRKEIQTMSVLRHPTLVNLHDAFEDDNEMVMIYEFMSGGELFEKVADEHNKMSEDEAVEYMRQVCKGLCHMHENNYVHLDLKPENIMFTTKRSNELKLIDFGLTAHLDPKQSVKVTTGTAEFAAPEVAEGKPVGYYTDMWSVGVLSYILLSGLSPFGGENDDETLRNVKSCDWNMDDSAFSGISEDGKDFIRKLLLADPNTRMTIHQALEHPWLTPGNAPGRDSQIPSSRYTKIRDSIKTKYDAWPEPLPPLGRISNYSSLRKHRPQEYSIRDAFWDRSEAQPRFIVKPYGTEVGEGQSANFYCRVIASSPPVVTWHKDDRELKQSVKYMKRYNGNDYGLTINRVKGDDKGEYTVRAKNSYGTKEEIVFLNVTRHSEPLKFEPLEPMKKAPSPPRVE | soluble |
